Biological target: elongation initiation factor 4E (eIF4E), P06730
Assay: SPR (Biacore T100), eIF4E immobilised on CM5 chip, peptide as analyte
Details: remark: other sources report otherwise

elongation initiation factor 4E (eIF4E), P06730, sequence (P06730 2-217 limits assumed): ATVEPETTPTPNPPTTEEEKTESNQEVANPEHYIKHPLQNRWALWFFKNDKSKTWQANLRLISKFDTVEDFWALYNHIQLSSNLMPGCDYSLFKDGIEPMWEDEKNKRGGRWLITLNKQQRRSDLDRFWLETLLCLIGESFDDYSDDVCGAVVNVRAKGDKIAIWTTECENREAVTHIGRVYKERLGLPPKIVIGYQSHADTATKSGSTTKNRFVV

Binder	Kd [µM]
ACAMGFFQDCG (HELM PEPTIDE1{A.C.A.M.G.F.F.Q.D.C.G.[am]}$PEPTIDE1,PEPTIDE1,2:R3-10:R3$$$V2.0; SMILES CSCC[C@@H]1NC(=O)[C@H](C)NC(=O)[C@@H](NC(=O)[C@H](C)N)CSSC[C@@H](C(=O)NCC(N)=O)NC(=O)[C@H](CC(=O)O)NC(=O)[C@H](CCC(N)=O)NC(=O)[C@H](Cc2ccccc2)NC(=O)[C@H](Cc2ccccc2)NC(=O)CNC1=O) [EE-2A]	11
ACEMAFFQDCG (HELM PEPTIDE1{A.C.E.M.A.F.F.Q.D.C.G.[am]}$PEPTIDE1,PEPTIDE1,2:R3-10:R3$$$V2.0; SMILES CSCC[C@@H]1NC(=O)[C@H](CCC(=O)O)NC(=O)[C@@H](NC(=O)[C@H](C)N)CSSC[C@@H](C(=O)NCC(N)=O)NC(=O)[C@H](CC(=O)O)NC(=O)[C@H](CCC(N)=O)NC(=O)[C@H](Cc2ccccc2)NC(=O)[C@H](Cc2ccccc2)NC(=O)[C@H](C)NC1=O) [EE-2C]	32
